Target: the molecule itself
Test: crystal structure; sitting drops, vapor diffusion, room temperature, 0.8 M ammonium sulfate, 0.1 M HEPES pH 7.0; 1.9 Å; two homotrimers in the asymmetric unit

B1: bacteriophage CBA120 ORF211 (TSP2), wild type (enzyme, UniProt G3M190 1-921, looked up)
chain: MTRNVEELFGGVITAPHQIPFTYKSNVGGETFLSLPFYPVTGVVTINGGMQVPLDNFEIEGNTLNLGRALSKGDVVYCLFDKILSPEDTAKGIRIYKFQAVGGETEFTPDFTSYGVQSLYIGGEYKTPEIEYSYDSTTGKVSLQTALSAGVWVVAEMSVKQPNISPAFDRSIQEIARSANVKDSEVIVSTDTISLLDGKKVVYDIATQTSYGLPTIPDGSVISSVSAGKLNYNPGDVQVDLLPLEDSFINVINTLGRNDGAKYIGECHSVADLRNTEPTMDGQRIILKQHTAGTLLGGGVFRALIDGTGKTDNNGTVIKTVGGAAWLRVNADRVNPFMFGALGGSNDDTIPVQSCVDSGKATQLTDAHYVSNIQLKYNTSSIYGSGLHYSRLHQLPSATGNCITIKDTCSLIVLDAFGVYGTGAQQGTSFTAGTTGIYVETPSGLSADYPFHTTADPRRDLCISKVHIAGFDEYGLNIDSGNFSVTTDSLLVNHINQVGVRCATTDWTWTNIQVNTCGKQCLVLDGCGNGRIIGGKFIWANWQPYGTVGQFPGITINNSQNMVINGIEVQDCGGNGIEISESYSISMNGLNTNRNGINANNTFYNIVFNKSDAVINGFVGLNYAANSGSGANSSAGNFQFLSNDCSVTINGVVETGYMGINFIGDNNIINPTNSDLSINGLVNYSKTGLQTMNETPTFDGVSTTPVYVSVPSSVGQVNGLRLSQANKDKLLYSRTAGPEGITMAAVIVPTISGAEVFNFMAIGSGFSDTSNSLHLQLVIDASGKQTIALLLGGDGTTQILSGDLPNDLKLQSGVPYHIAIGAKPGYFWWSILNIQTGKRIRRSFRGAYLAVPFNSIFGLTSSLTFFSDSNAGGDACSGVGAKVYVGMFSSENDYVASRYYNLINPVDPTKLISYRILDSSI
notes: 921-residue polypeptide chain; gene codon optimized for E. coli; residues 1-168 have no electron density in the crystal; Calculated monomer mass 99,054 Da with the 6X-His tag; also called tailspike protein 2; wild-type TSP2; source: E. coli Rosetta-gami 2 (pBAD24), purified (Ni-NTA); not shown: 6X-His, C-terminal, kept
stoichiometry N: 3

From article PMC7506556, “Structure and function of bacteriophage CBA120 ORF211 (TSP2), the determinant of phage specificity towards E. coli O157:H7” (Scientific Reports, 2020)
